Measurements taken from the supplement of paper PMC6757056.
± gives the standard deviation of the averaged measurements.

B1: library; a variant is named by its letters at N, in order (parent)
chain: GCUGUCACCGAGAAACUGUGAAGUAUAUCUUAAACCUGGGCACUUAAAAGAUAUAUGGAGUUAGUAGUGCAACCUGCUCGGUCUGAUGAGUCCNNNNNNGGACGAAACAGC

Key:
cyclic di-GMP [1] = variants of: B1; assay: FACS-Seq fitted mean relative fluorescence mCherry/BFP without ligand (log10 relative fluorescence); HEK293T; ligand: cyclic di-GMP (c-di-GMP-II aptamer); higher = higher reporter protein expression; conditions: ligand present: no
Procedure: (§1)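 Hammerhead (sTRSV) ribozyme switch libraries with a ligand aptamer grafted on stem I and a randomized N4-6 loop II, cloned into the 3' UTR of mCherry and transiently transfected into HEK293T cells; RNA-Seq 72 h post transfection with ligand added 1 h before transfection; RNA read count / plasmid DNA read count normalized to the non-cleaving sTRSVctl (x100), log10; sequences with >100 DNA reads. FACS-Seq: lentiviral library sorted into 6 bins after 48 h ligand, log-normal fit mean of mCherry/BFP scaled to controls. Printed sequences are partial switch sequences.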

cyclic di-GMP [2] = variants of: B1; assay: normalized RNA/DNA level without ligand (relative to sTRSVctl = 100) (log10 (% of sTRSVctl)); HEK293T; ligand: cyclic di-GMP (c-di-GMP-II aptamer); higher = less ribozyme self-cleavage, higher mRNA level; conditions: reporter: mCherry (pCS4076), ligand present: no
Procedure: as §1

cyclic di-GMP [3] = variants of: B1; assay: FACS-Seq fitted mean relative fluorescence mCherry/BFP with ligand (log10 relative fluorescence); HEK293T; ligand: cyclic di-GMP (c-di-GMP-II aptamer); ligand concentration (+) FACS-Seq: 1 mM; higher = higher reporter protein expression; conditions: ligand present: yes
Procedure: as §1

cyclic di-GMP [4] = variants of: B1; assay: normalized RNA/DNA level with ligand (relative to sTRSVctl = 100) (log10 (% of sTRSVctl)); HEK293T; ligand: cyclic di-GMP (c-di-GMP-II aptamer); ligand concentration (+) RNA-Seq: 1 mM; higher = less ribozyme self-cleavage, higher mRNA level; conditions: reporter: mCherry (pCS4076), ligand present: yes
Procedure: as §1

Variant | FACS-Seq fitted mean (log10) (cyclic di-GMP [1]) | normalized RNA/DNA level without ligand (log10) (cyclic di-GMP [2]) | FACS-Seq fitted mean (log10) (cyclic di-GMP [3]) | normalized RNA/DNA level with ligand (log10) (cyclic di-GMP [4])
AUGGAA | -0.588 ± 0.0092 | 1.33 ± 0.13 | -0.293 ± 0.033 | 1.53 ± 0.14
CCAGAA | -0.598 ± 0.013 | 1.34 ± 0.14 | -0.277 ± 0.015 | 1.58 ± 0.1
CGGCUU | -0.717 ± 0.062 | 1.5 ± 0.099 | -0.63 ± 0.15 | 1.67 ± 0.062
ACCAUA | -0.294 ± 0.15 | 1.51 ± 0.065 | 0.0129 ± 0.043 | 1.71 ± 0.11
AUGGUA | -0.519 ± 0.1 | 1.46 ± 0.066 | -0.143 ± 0.024 | 1.65 ± 0.098
CCUCCG | 0.138 ± 0.023 | 1.769 ± 0.013 | 0.32 ± 0.035 | 1.87 ± 0.073
CAAAGA | -0.231 ± 0.15 | 1.47 ± 0.074 | 0.00425 ± 0.022 | 1.68 ± 0.1
UAUACU | 0.0993 ± 0.048 | 1.722 ± 0.013 | 0.304 ± 0.012 | 1.85 ± 0.066
AACGAU | -0.207 ± 0.075 | 1.57 ± 0.052 | 0.0583 ± 0.17 | 1.76 ± 0.096
AGAAGG | -0.204 ± 0.074 | 1.5 ± 0.072 | 0.0586 ± 0.061 | 1.69 ± 0.064
UAGUUG | 0.116 ± 0.21 | 1.7 ± 0.05 | 0.29 ± 0.039 | 1.81 ± 0.082
UGUGAU | -0.736 ± 0.12 | 1.676 ± 0.012 | -0.5759 ± 0.0014 | 1.81 ± 0.13
AUGAUG | -0.239 ± 0.054 | 1.6 ± 0.069 | 0.056 ± 0.078 | 1.77 ± 0.11
GAGAAG | -0.283 ± 0.064 | 1.71 ± 0.038 | -0.00672 ± 0.064 | 1.79 ± 0.12
GCUGUA | -0.0986 ± 0.038 | 1.6 ± 0.04 | 0.213 ± 0.017 | 1.74 ± 0.12
UGGACU | -0.517 ± 0.12 | 1.69 ± 0.076 | -0.118 ± 0.075 | 1.86 ± 0.045
CGGUCA | -0.42 ± 0.019 | 1.45 ± 0.045 | -0.182 ± 0.032 | 1.59 ± 0.18
CCUAUA | -0.492 ± 0.012 | 1.43 ± 0.12 | -0.121 ± 0.047 | 1.65 ± 0.067
GUAGAG | 0.0274 ± 0.11 | 1.47 ± 0.073 | 0.252 ± 0.077 | 1.66 ± 0.12
GAAUUG | -0.422 ± 0.012 | 1.57 ± 0.096 | -0.0224 ± 0.071 | 1.74 ± 0.11
CACACU | -0.437 ± 0.0083 | 1.52 ± 0.12 | -0.0902 ± 0.05 | 1.7 ± 0.067
GUGAUG | -0.401 ± 0.17 | 1.54 ± 0.09 | -0.137 ± 0.01 | 1.73 ± 0.068
GUAGAA | -0.503 ± 0.021 | 1.39 ± 0.081 | -0.1892 ± 0.0011 | 1.63 ± 0.1
CCAUAA | -0.533 ± 0.16 | 1.44 ± 0.14 | -0.252 ± 0.0063 | 1.67 ± 0.079

Variant | FACS-Seq fitted mean (log10) (cyclic di-GMP [1]) | normalized RNA/DNA level without ligand (log10) (cyclic di-GMP [2]) | FACS-Seq fitted mean (log10) (cyclic di-GMP [3]) | normalized RNA/DNA level with ligand (log10) (cyclic di-GMP [4])
CCAGAC | -0.24 ± 0.11 | 1.631 ± 0.0075 | 0.128 ± 0.0098 | 1.83 ± 0.16
CACCUU | -0.0716 ± 0.019 | 1.48 ± 0.076 | 0.228 ± 0.071 | 1.67 ± 0.066
CGUUCC | -0.821 ± 0.086 | 1.735 ± 0.0027 | -0.407 ± 0.1 | 1.87 ± 0.13
AGGAAU | -0.199 ± 0.032 | 1.6 ± 0.042 | 0.123 ± 0.1 | 1.76 ± 0.1
AGCACG | -0.192 ± 0.0049 | 1.61 ± 0.036 | 0.065 ± 0.026 | 1.77 ± 0.13
AAGGUG | -0.189 ± 0.0061 | 1.51 ± 0.072 | 0.04 ± 0.083 | 1.69 ± 0.11
GAAAAG | -0.45 ± 0.058 | 1.575 ± 0.0029 | -0.228 ± 0.032 | 1.74 ± 0.14
AUUACG | -0.439 ± 0.014 | 1.67 ± 0.032 | -0.0914 ± 0.065 | 1.83 ± 0.072
GCCGCU | -0.109 ± 0.1 | 1.72 ± 0.015 | 0.0767 ± 0.02 | 1.92 ± 0.09
ACAUUA | -0.21 ± 0.0052 | 1.41 ± 0.087 | 0.0676 ± 0.069 | 1.62 ± 0.078
GCUACG | 0.0942 ± 0.14 | 1.58 ± 0.017 | 0.353 ± 0.045 | 1.72 ± 0.1
CAAAAA | -0.703 ± 0.047 | 1.21 ± 0.087 | -0.444 ± 0.071 | 1.46 ± 0.079
CGUUCU | -0.248 ± 0.08 | 1.51 ± 0.084 | 0.0758 ± 0.01 | 1.68 ± 0.068
AAAGGA | -0.691 ± 0.009 | 1.31 ± 0.13 | -0.5317 ± 0.0025 | 1.47 ± 0.11
CGCAUA | -0.777 ± 0.12 | 1.29 ± 0.082 | -0.5758 ± 0.0012 | 1.52 ± 0.17
AGAAAC | 0.0659 ± 0.072 | 1.617 ± 0.0019 | 0.343 ± 0.052 | 1.8 ± 0.12
AACGCU | -0.0259 ± 0.099 | 1.704 ± 0.013 | 0.296 ± 0.0034 | 1.86 ± 0.076
AAAUAA | -0.515 ± 0.032 | 1.45 ± 0.067 | -0.21 ± 0.07 | 1.68 ± 0.12
GUGCAU | -0.575 ± 0.042 | 1.73 ± 0.028 | -0.302 ± 0.062 | 1.85 ± 0.18
AAAGGG | -0.506 ± 0.051 | 1.37 ± 0.078 | -0.2804 ± 0.00041 | 1.59 ± 0.077
AUCCUG | -0.263 ± 0.061 | 1.67 ± 0.017 | -0.151 ± 0.016 | 1.78 ± 0.13
AGCAAA | -0.531 ± 0.032 | 1.48 ± 0.042 | -0.277 ± 0.1 | 1.64 ± 0.14
CAUGGA | -0.378 ± 0.071 | 1.52 ± 0.052 | -0.00583 ± 0.069 | 1.74 ± 0.077
UUUAGU | 0.00244 ± 0.12 | 1.732 ± 0.013 | 0.273 ± 0.034 | 1.87 ± 0.088

Variant | FACS-Seq fitted mean (log10) (cyclic di-GMP [1]) | normalized RNA/DNA level without ligand (log10) (cyclic di-GMP [2]) | FACS-Seq fitted mean (log10) (cyclic di-GMP [3]) | normalized RNA/DNA level with ligand (log10) (cyclic di-GMP [4])
GUGUUC | -0.72254 ± 0.00049 | 1.39 ± 0.14 | -0.527 ± 0.032 | 1.57 ± 0.14
GUGAAG | -0.453 ± 0.027 | 1.5 ± 0.067 | -0.278 ± 0.08 | 1.66 ± 0.064
CCCUGC | -0.0175 ± 0.34 | 1.792 ± 0.0034 | 0.142 ± 0.079 | 1.9 ± 0.16
UUACUA | -0.111 ± 0.12 | 1.64 ± 0.029 | 0.155 ± 0.095 | 1.77 ± 0.13
CAUUAU | -0.4943 ± 0.0018 | 1.54 ± 0.098 | -0.353 ± 0.08 | 1.71 ± 0.1
CUAUCU | -0.234 ± 0.066 | 1.62 ± 0.021 | -0.142 ± 0.059 | 1.76 ± 0.11
UCGAGU | -0.395 ± 0.033 | 1.47 ± 0.066 | -0.0571 ± 0.032 | 1.73 ± 0.11
GCCCUA | -0.142 ± 0.071 | 1.688 ± 0.013 | 0.0262 ± 0.042 | 1.85 ± 0.1
GAGUAA | -0.0125 ± 0.15 | 1.71 ± 0.027 | 0.165 ± 0.029 | 1.81 ± 0.069
UUGACA | -0.91 ± 0.064 | 1.701 ± 0.0052 | -0.508 ± 0.077 | 1.83 ± 0.14
GCAAGC | -0.589 ± 0.17 | 1.63 ± 0.026 | -0.514 ± 0.15 | 1.81 ± 0.14
UACCAU | -0.473 ± 0.0049 | 1.663 ± 0.0085 | -0.0951 ± 0.092 | 1.8 ± 0.12
UUUCUU | 0.255 ± 0.19 | 1.773 ± 0.014 | 0.428 ± 0.021 | 1.89 ± 0.066
UCAAUG | -0.476 ± 0.064 | 1.51 ± 0.12 | -0.188 ± 0.01 | 1.78 ± 0.027
CGAAUA | -0.507 ± 0.0079 | 1.24 ± 0.091 | -0.209 ± 0.083 | 1.45 ± 0.086
GAUUUA | -0.361 ± 0.0081 | 1.65 ± 0.018 | -0.0961 ± 0.03 | 1.81 ± 0.11
CGGCAC | -0.036 ± 0.21 | 1.64 ± 0.038 | 0.073 ± 0.042 | 1.8 ± 0.12
CCGCAC | -0.121 ± 0.13 | 1.6849 ± 0.0016 | 0.131 ± 0.16 | 1.85 ± 0.11
AAGCCU | 0.14 ± 0.18 | 1.705 ± 0.014 | 0.3704 ± 0.0037 | 1.84 ± 0.11
ACCUCC | 0.0782 ± 0.15 | 1.78 ± 0.055 | 0.281 ± 0.037 | 1.86 ± 0.15
ACGCGG | -0.429 ± 0.041 | 1.69 ± 0.034 | -0.107 ± 0.078 | 1.8 ± 0.13
UCAUUA | -0.996 ± 0.055 | 1.5 ± 0.017 | -0.732 ± 0.049 | 1.73 ± 0.15
CGCCUU | -0.439 ± 0.021 | 1.5321 ± 0.00037 | -0.126 ± 0.059 | 1.72 ± 0.13
UGAUAG | -0.125 ± 0.093 | 1.696 ± 0.015 | 0.191 ± 0.081 | 1.83 ± 0.12
